Assay results taken from US20140087995A1 (published 2014).
Numbered stars: 1 amine (or outer) side, 2 acyl side, 3 side chain; on linkers, the order of the positions; unused ones are H or OH. Bridge positions count the residues as written; N and C are the ends. Side chains are listed from the residue outwards. Ends that are not written are not given here. * marks the point of attachment. C20 diacid = O=C(O)CCCCCCCCCCCCCCCCCCC(=O)*; γGlu = O=C(O)[C@H](CCC(=O)[*:2])N[*:1]

T1: human amylin 3(a) receptor (human calcitonin receptor co-expressed with RAMP-3) (human, UniProt P30988 25-474; O60896 24-148, limits assumed)
T1 sequence (looked up) 1: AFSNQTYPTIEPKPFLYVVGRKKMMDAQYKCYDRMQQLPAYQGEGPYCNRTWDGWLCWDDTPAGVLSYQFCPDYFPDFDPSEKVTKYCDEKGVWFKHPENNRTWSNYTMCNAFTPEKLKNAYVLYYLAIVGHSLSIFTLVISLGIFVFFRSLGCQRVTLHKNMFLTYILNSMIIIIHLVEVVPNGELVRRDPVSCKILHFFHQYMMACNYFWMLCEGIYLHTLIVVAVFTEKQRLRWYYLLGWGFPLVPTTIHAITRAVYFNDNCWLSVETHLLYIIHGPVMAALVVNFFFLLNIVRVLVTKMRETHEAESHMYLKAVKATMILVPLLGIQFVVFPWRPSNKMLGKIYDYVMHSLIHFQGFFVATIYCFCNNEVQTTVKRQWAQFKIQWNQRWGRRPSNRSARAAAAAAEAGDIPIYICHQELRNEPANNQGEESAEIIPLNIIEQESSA
T1 sequence (looked up) 2: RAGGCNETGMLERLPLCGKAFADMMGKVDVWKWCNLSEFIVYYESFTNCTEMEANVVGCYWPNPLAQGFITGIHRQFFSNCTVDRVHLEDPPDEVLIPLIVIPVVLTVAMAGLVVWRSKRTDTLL

B1: N^ε1-[(4S)-4-carboxy-4-(19-carboxynonadecanoylamino)butanoyl]-[Arg17,Pro21,Pro27,Glu35]-h-amylin (peptide)
peptide: K([γGlu-C20 diacid])CNTATCATQRLANFLRHSSPNFGAIPSSTNVGSETY-NH2
modifications: disulfide 2-7; N-terminus assumed
SMILES: CC[C@H](C)[C@H](NC(=O)[C@H](C)NC(=O)CNC(=O)[C@H](Cc1ccccc1)NC(=O)[C@H](CC(N)=O)NC(=O)[C@@H]1CCCN1C(=O)[C@H](CO)NC(=O)[C@H](CO)NC(=O)[C@H](Cc1c[nH]cn1)NC(=O)[C@H](CCCNC(=N)N)NC(=O)[C@H](CC(C)C)NC(=O)[C@H](Cc1ccccc1)NC(=O)[C@H](CC(N)=O)NC(=O)[C@H](C)NC(=O)[C@H](CC(C)C)NC(=O)[C@H](CCCNC(=N)N)NC(=O)[C@H](CCC(N)=O)NC(=O)[C@@H](NC(=O)[C@H](C)NC(=O)[C@@H]1CSSC[C@H](NC(=O)[C@@H](N)CCCCNC(=O)CC[C@H](NC(=O)CCCCCCCCCCCCCCCCCCC(=O)O)C(=O)O)C(=O)N[C@@H](CC(N)=O)C(=O)N[C@@H]([C@@H](C)O)C(=O)N[C@@H](C)C(=O)N[C@@H]([C@@H](C)O)C(=O)N1)[C@@H](C)O)C(=O)N1CCC[C@H]1C(=O)N[C@@H](CO)C(=O)N[C@@H](CO)C(=O)N[C@H](C(=O)N[C@@H](CC(N)=O)C(=O)N[C@H](C(=O)NCC(=O)N[C@@H](CO)C(=O)N[C@@H](CCC(=O)O)C(=O)N[C@H](C(=O)N[C@@H](Cc1ccc(O)cc1)C(N)=O)[C@@H](C)O)C(C)C)[C@@H](C)O
notes: also called compound 27
B2: N^ε1-[(4S)-4-carboxy-4-(19-carboxynonadecanoylamino)butanoyl]-[His14,Arg17,Pro21,Pro27,His35]-h-amylin (peptide)
peptide: K([γGlu-C20 diacid])CNTATCATQRLAHFLRHSSPNFGAIPSSTNVGSHTY-NH2
modifications: disulfide 2-7; N-terminus assumed
SMILES: CC[C@H](C)[C@H](NC(=O)[C@H](C)NC(=O)CNC(=O)[C@H](Cc1ccccc1)NC(=O)[C@H](CC(N)=O)NC(=O)[C@@H]1CCCN1C(=O)[C@H](CO)NC(=O)[C@H](CO)NC(=O)[C@H](Cc1c[nH]cn1)NC(=O)[C@H](CCCNC(=N)N)NC(=O)[C@H](CC(C)C)NC(=O)[C@H](Cc1ccccc1)NC(=O)[C@H](Cc1c[nH]cn1)NC(=O)[C@H](C)NC(=O)[C@H](CC(C)C)NC(=O)[C@H](CCCNC(=N)N)NC(=O)[C@H](CCC(N)=O)NC(=O)[C@@H](NC(=O)[C@H](C)NC(=O)[C@@H]1CSSC[C@H](NC(=O)[C@@H](N)CCCCNC(=O)CC[C@H](NC(=O)CCCCCCCCCCCCCCCCCCC(=O)O)C(=O)O)C(=O)N[C@@H](CC(N)=O)C(=O)N[C@@H]([C@@H](C)O)C(=O)N[C@@H](C)C(=O)N[C@@H]([C@@H](C)O)C(=O)N1)[C@@H](C)O)C(=O)N1CCC[C@H]1C(=O)N[C@@H](CO)C(=O)N[C@@H](CO)C(=O)N[C@H](C(=O)N[C@@H](CC(N)=O)C(=O)N[C@H](C(=O)NCC(=O)N[C@@H](CO)C(=O)N[C@@H](Cc1c[nH]cn1)C(=O)N[C@H](C(=O)N[C@@H](Cc1ccc(O)cc1)C(N)=O)[C@@H](C)O)C(C)C)[C@@H](C)O
notes: also called compound 66
B3: N^ε1-[(4S)-4-carboxy-4-(19-carboxynonadecanoylamino)butanoyl]-[Arg17,Pro21,Pro27,His34]-h-amylin (peptide)
peptide: K([γGlu-C20 diacid])CNTATCATQRLANFLRHSSPNFGAIPSSTNVGHNTY-NH2
modifications: disulfide 2-7; N-terminus assumed
SMILES: CC[C@H](C)[C@H](NC(=O)[C@H](C)NC(=O)CNC(=O)[C@H](Cc1ccccc1)NC(=O)[C@H](CC(N)=O)NC(=O)[C@@H]1CCCN1C(=O)[C@H](CO)NC(=O)[C@H](CO)NC(=O)[C@H](Cc1c[nH]cn1)NC(=O)[C@H](CCCNC(=N)N)NC(=O)[C@H](CC(C)C)NC(=O)[C@H](Cc1ccccc1)NC(=O)[C@H](CC(N)=O)NC(=O)[C@H](C)NC(=O)[C@H](CC(C)C)NC(=O)[C@H](CCCNC(=N)N)NC(=O)[C@H](CCC(N)=O)NC(=O)[C@@H](NC(=O)[C@H](C)NC(=O)[C@@H]1CSSC[C@H](NC(=O)[C@@H](N)CCCCNC(=O)CC[C@H](NC(=O)CCCCCCCCCCCCCCCCCCC(=O)O)C(=O)O)C(=O)N[C@@H](CC(N)=O)C(=O)N[C@@H]([C@@H](C)O)C(=O)N[C@@H](C)C(=O)N[C@@H]([C@@H](C)O)C(=O)N1)[C@@H](C)O)C(=O)N1CCC[C@H]1C(=O)N[C@@H](CO)C(=O)N[C@@H](CO)C(=O)N[C@H](C(=O)N[C@@H](CC(N)=O)C(=O)N[C@H](C(=O)NCC(=O)N[C@@H](Cc1c[nH]cn1)C(=O)N[C@@H](CC(N)=O)C(=O)N[C@H](C(=O)N[C@@H](Cc1ccc(O)cc1)C(N)=O)[C@@H](C)O)C(C)C)[C@@H](C)O
notes: also called compound 77
B4: N^ε1-[(4S)-4-carboxy-4-(19-carboxynonadecanoylamino)butanoyl]-[Arg17,Pro21,Pro27,His35]-h-amylin (peptide)
peptide: K([γGlu-C20 diacid])CNTATCATQRLANFLRHSSPNFGAIPSSTNVGSHTY-NH2
modifications: disulfide 2-7; N-terminus assumed
SMILES: CC[C@H](C)[C@H](NC(=O)[C@H](C)NC(=O)CNC(=O)[C@H](Cc1ccccc1)NC(=O)[C@H](CC(N)=O)NC(=O)[C@@H]1CCCN1C(=O)[C@H](CO)NC(=O)[C@H](CO)NC(=O)[C@H](Cc1c[nH]cn1)NC(=O)[C@H](CCCNC(=N)N)NC(=O)[C@H](CC(C)C)NC(=O)[C@H](Cc1ccccc1)NC(=O)[C@H](CC(N)=O)NC(=O)[C@H](C)NC(=O)[C@H](CC(C)C)NC(=O)[C@H](CCCNC(=N)N)NC(=O)[C@H](CCC(N)=O)NC(=O)[C@@H](NC(=O)[C@H](C)NC(=O)[C@@H]1CSSC[C@H](NC(=O)[C@@H](N)CCCCNC(=O)CC[C@H](NC(=O)CCCCCCCCCCCCCCCCCCC(=O)O)C(=O)O)C(=O)N[C@@H](CC(N)=O)C(=O)N[C@@H]([C@@H](C)O)C(=O)N[C@@H](C)C(=O)N[C@@H]([C@@H](C)O)C(=O)N1)[C@@H](C)O)C(=O)N1CCC[C@H]1C(=O)N[C@@H](CO)C(=O)N[C@@H](CO)C(=O)N[C@H](C(=O)N[C@@H](CC(N)=O)C(=O)N[C@H](C(=O)NCC(=O)N[C@@H](CO)C(=O)N[C@@H](Cc1c[nH]cn1)C(=O)N[C@H](C(=O)N[C@@H](Cc1ccc(O)cc1)C(N)=O)[C@@H](C)O)C(C)C)[C@@H](C)O
notes: also called compound 60
B5: N^ε1-[(4S)-4-carboxy-4-(19-carboxynonadecanoylamino)butanoyl]-[Arg17,Pro21,Pro27,Lys35]-h-amylin (peptide)
peptide: K([γGlu-C20 diacid])CNTATCATQRLANFLRHSSPNFGAIPSSTNVGSKTY-NH2
modifications: disulfide 2-7; N-terminus assumed
SMILES: CC[C@H](C)[C@H](NC(=O)[C@H](C)NC(=O)CNC(=O)[C@H](Cc1ccccc1)NC(=O)[C@H](CC(N)=O)NC(=O)[C@@H]1CCCN1C(=O)[C@H](CO)NC(=O)[C@H](CO)NC(=O)[C@H](Cc1c[nH]cn1)NC(=O)[C@H](CCCNC(=N)N)NC(=O)[C@H](CC(C)C)NC(=O)[C@H](Cc1ccccc1)NC(=O)[C@H](CC(N)=O)NC(=O)[C@H](C)NC(=O)[C@H](CC(C)C)NC(=O)[C@H](CCCNC(=N)N)NC(=O)[C@H](CCC(N)=O)NC(=O)[C@@H](NC(=O)[C@H](C)NC(=O)[C@@H]1CSSC[C@H](NC(=O)[C@@H](N)CCCCNC(=O)CC[C@H](NC(=O)CCCCCCCCCCCCCCCCCCC(=O)O)C(=O)O)C(=O)N[C@@H](CC(N)=O)C(=O)N[C@@H]([C@@H](C)O)C(=O)N[C@@H](C)C(=O)N[C@@H]([C@@H](C)O)C(=O)N1)[C@@H](C)O)C(=O)N1CCC[C@H]1C(=O)N[C@@H](CO)C(=O)N[C@@H](CO)C(=O)N[C@H](C(=O)N[C@@H](CC(N)=O)C(=O)N[C@H](C(=O)NCC(=O)N[C@@H](CO)C(=O)N[C@@H](CCCCN)C(=O)N[C@H](C(=O)N[C@@H](Cc1ccc(O)cc1)C(N)=O)[C@@H](C)O)C(C)C)[C@@H](C)O
notes: also called compound 35
B6: N^ε1-[(4S)-4-carboxy-4-(19-carboxynonadecanoylamino)butanoyl]-[His14,Arg17,Pro21,Pro27,Arg34]-h-amylin (peptide)
peptide: K([γGlu-C20 diacid])CNTATCATQRLAHFLRHSSPNFGAIPSSTNVGRNTY-NH2
modifications: disulfide 2-7; N-terminus assumed
SMILES: CC[C@H](C)[C@H](NC(=O)[C@H](C)NC(=O)CNC(=O)[C@H](Cc1ccccc1)NC(=O)[C@H](CC(N)=O)NC(=O)[C@@H]1CCCN1C(=O)[C@H](CO)NC(=O)[C@H](CO)NC(=O)[C@H](Cc1c[nH]cn1)NC(=O)[C@H](CCCNC(=N)N)NC(=O)[C@H](CC(C)C)NC(=O)[C@H](Cc1ccccc1)NC(=O)[C@H](Cc1c[nH]cn1)NC(=O)[C@H](C)NC(=O)[C@H](CC(C)C)NC(=O)[C@H](CCCNC(=N)N)NC(=O)[C@H](CCC(N)=O)NC(=O)[C@@H](NC(=O)[C@H](C)NC(=O)[C@@H]1CSSC[C@H](NC(=O)[C@@H](N)CCCCNC(=O)CC[C@H](NC(=O)CCCCCCCCCCCCCCCCCCC(=O)O)C(=O)O)C(=O)N[C@@H](CC(N)=O)C(=O)N[C@@H]([C@@H](C)O)C(=O)N[C@@H](C)C(=O)N[C@@H]([C@@H](C)O)C(=O)N1)[C@@H](C)O)C(=O)N1CCC[C@H]1C(=O)N[C@@H](CO)C(=O)N[C@@H](CO)C(=O)N[C@H](C(=O)N[C@@H](CC(N)=O)C(=O)N[C@H](C(=O)NCC(=O)N[C@@H](CCCNC(=N)N)C(=O)N[C@@H](CC(N)=O)C(=O)N[C@H](C(=O)N[C@@H](Cc1ccc(O)cc1)C(N)=O)[C@@H](C)O)C(C)C)[C@@H](C)O
notes: also called compound 85

molecular target: T1, human amylin 3(a) receptor (human …); experiment: cell-based or functional assay

Ratio hCT/hAmylin funct. (hCTR EC50 over hAmylin-R EC50) | hAmylin-R funct. EC50 (pM) | Binder
22.6 | 133 | B1
20.1 | 27 | B2
37.3 | 145 | B3
15.3 | 351 | B4
15 | 364 | B5
26.6 | 146 | B6
